{
  "source": "the nanobody polyreactivity screen of Harvey et al. (2022)",
  "data": [
    {"test": "yeast display, Sf9 membrane polyspecificity reagent, FACS + sequencing; frameworks hold sequencing errors", "procedure,_shortened": "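A nanobody's polyreactivity label depends on the gate it was sorted from. Yeast display cells were stained with 10% biotinylated, detergent-solubilized Sf9 membrane reagent for 1 hour at 4 °C, enriched on streptavidin microbeads and sorted by FACS. The low and high (top ~1%) gates were set on anti-HA fluorescence for expression and streptavidin fluorescence for reagent binding.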", "values": [
      {"sequence": "QVQLVESGGGLVQAGGSLRLSCAASGRTFPAYAMGWYRQAPGKERELVAAITWSGGRTYYADSVKGRFTISRDNAKNTVYLQMNSLKPEDTAVYYCAAQYRVLWYSYYYWGQGTQVTVSS", "polyreactivity (PSR sort gate)": "high polyreactivity"},
      {"sequence": "QVQLEESGGGLVQAGGRLRLSCAASGIIYDFYAMGWYRQAPGKERELVAAITSSGGSTYYADSVKGRFTISRDNAKKTVYLQMNSLKPEDTAVDYCAAEYTIYGTDQRYYYWGQGTQVTVSS", "polyreactivity (PSR sort gate)": "low polyreactivity"},
      {"sequence": "QVQLVESGGGLVQAGGSLRLSCAASGSIFDPYAMGWYRQAPGKERELVAAITASGSSTYYADSVKGRFTISRDNAKNTVYLQMNSLKPEDTAVYYCAADRANWEYLLSWLGYDYWGQGTQVTVSS", "polyreactivity (PSR sort gate)": "low polyreactivity"},
      {"sequence": "QVQLVESGGGLVQAGGSLRLSCAASGRIFYYNAMGWYRQAPGKERELVARISSGGSTNYADSVKGRFTISRDNAKNTVYLQMNSLKPEDTAVYYCAVAKGGLAWGVGRAGRYDFWGQGTQVTVSS", "polyreactivity (PSR sort gate)": "low polyreactivity"},
      {"sequence": "QVQLVESGGGLVQAGGSLRLSCAASGLTFYPYAMGWSRQAPGKERELVAAINWSGTTTYYADSVKGRFTISRDNAKNTVYLQMNSLKPEDTAVYYCNADVYYEPTTGYYLWDYDYWGQGTQVTVSS", "polyreactivity (PSR sort gate)": "low polyreactivity"},
      {"sequence": "QVQLVESGGGLVQAGGSLRLSCAASGSTFRYYAMGWYRQAPGKVRELVAAITSSGTSTYYADSVTGRFTISRDNAKNTVYLQKNSLKPEDTAVYYCAAPPVYKWVSSRYDYWGQGTQVTVSS", "polyreactivity (PSR sort gate)": "low polyreactivity"},
      {"sequence": "QVQLLESGDGLVQAVGSLRLSCAASGYISGYYYMGWYRQAPGKERELVAGIDAFGSSTNYADCVKGRFTISRDNAINSVYLQMNSLKPEDTAVYYCAARPDGDRLFSYWGQGTQVTVSS", "polyreactivity (PSR sort gate)": "low polyreactivity"},
      {"sequence": "QVQLVESGGGLVQAGGSLRLSCAASGFNFYDYTMGWYRQAPGKERELVAAISWSGGSTYHADSVKGRFTISRDTAKNTVYLQMNSLKPEDTAVYYCNADYGYYKSGYGFDYWGQGTKVTVSS", "polyreactivity (PSR sort gate)": "low polyreactivity"},
      {"sequence": "QVQLVESGGGLVQAGGSLRLSCAASGRTFWGITMGWYRQAPGKERELVASITYSGGRTYYADSVKGRFTISRDNAKNTVYLQMNSLKPEDTAVYYCAATLYRYRYFGYDYWGQGTQVTVSS", "polyreactivity (PSR sort gate)": "high polyreactivity"},
      {"sequence": "QVQLVVSGGGLVQPGGSLRLSCAASGRTFPYYAMGWYIQAPGKERELVARITGSGTSTNYADSVKGRFTISRDKSKNTVYLKMNSLKPEDTAVYYCAAPKYGSYYIADYEYWGQGTHVTVSS", "polyreactivity (PSR sort gate)": "low polyreactivity"},
      {"sequence": "QVQLEESGGGLVQAGGSIRLSCAASGSTLVGNAMGWYRQAPGKERELVATIDLSDDITYYADSVKGRFTSSRDNAKNTFYLQMNSLKPEDTAVYYCSAEYYLYSTYTVSYGKYDYWGQGTQGTVSS", "polyreactivity (PSR sort gate)": "high polyreactivity"},
      {"sequence": "QVQLVESGGGLVQAGGSLRLSCAASGYTFSHYAMGWYRQAPGTERELVAGITWSGGSTYYADSVKGRFTISRDNAKNTVYLQMNSLKPEDTSVYYCAAKYYWYYSYSGIPLFDYWGQGTQVTVSS", "polyreactivity (PSR sort gate)": "low polyreactivity"},
      {"sequence": "QVQLVESGGGLVQAGGSLRLSCAASGGIFTGYAMGRYRQAPGKERELVAAISSGGTTYYADSVKGRFTISRDNAKNTVDLQMNSLKPEDTAVYYCAAGFYLRAVWMDYWGQGSQVTVSS", "polyreactivity (PSR sort gate)": "high polyreactivity"},
      {"sequence": "QVQLVESGGGLVQAGGSLRLSCAATGFTIAWYTMGWYRQAPGKERELVAAISLNGGSKYYADSVKGRFTISRDNAKNTVYLQMNSLKPDDTAVYYCAKGYRWPYYPYDYWGQGTQVTVSS", "polyreactivity (PSR sort gate)": "low polyreactivity"},
      {"sequence": "QVQLVESGGGLVQAGGSLRLSCAASGSTFFYNAMGWYRQAPGKERELVAAITYRGGRTYYADSVKGRFTISRDIAKNTVYLQMKSLNPEDTSVYYCHAYPLYRVPDRLVVSDGNYWGQGTQVTVSS", "polyreactivity (PSR sort gate)": "low polyreactivity"},
      {"sequence": "QVQLVESGGGLVQAGGSLRLSCAASGNTFYSNAMRWYRQAPGKERELVAAISTSGGSTFYADSVKGRFTISRDNAKNTVYLQMNSLKPEDTAVYYCAARSLRGHRYRYDYWGQGTQVTVSS", "polyreactivity (PSR sort gate)": "high polyreactivity"},
      {"sequence": "QVQLVESGGGLVQAGGSLRLSCAASGSTFLRYVMGWYRQAPGKERELVAAISRRGGSTYYADSVKGRFTISRDNAKNTVYLQMNSLNPEDTAGYYCARTVGYRTLLESDSCGQGTQVTVSS", "polyreactivity (PSR sort gate)": "high polyreactivity"},
      {"sequence": "QVQLVESGGGLVQAGGSLRLSCAASGNIFYRYPMGWYRQAPGKEREMVAAISRSGGSTYYADSVKGRFTISRDNAKNSVYLQRNSLKPEDTAVYYCAAEYQGFWWYGDYDYWGQGTQVTVSS", "polyreactivity (PSR sort gate)": "high polyreactivity"},
      {"sequence": "QVQLVQSGGGLVQAGGSLRLSCAASGSTNRYYAMGLYRQAPGKERELVAAITKSGGSTYYADSVKGRFTISRDNAKNTVYLQMNSLKPEDTAVVYCAAVRGWYSPALSEHDYWGQGTQVTVSS", "polyreactivity (PSR sort gate)": "low polyreactivity"},
      {"sequence": "QVQLVETVGGLVQAGGSLRLSCAASGSTFYRYAMGWYRQAPGKERELVAAISSSGGSTYYADSVKGRFTISRDNAKNSVYLQMNSLKPEDSAVYYCNAARNFRYDYWGQGTQVTVSS", "polyreactivity (PSR sort gate)": "high polyreactivity"},
      {"sequence": "QVQLVESGGGLVQAGGSLRLSCAASGSIFKFYAMGWYRQAPGKEREMVAVITYIGGSTYYADSVKGRFTISRDNAKNTVYLQMNSLKPEDTAVYYCNKDGAFHWVGSDPVYLFEYWGQGTQVTVSS", "polyreactivity (PSR sort gate)": "low polyreactivity"},
      {"sequence": "QVQLVESGGGIVQAGGSLRLSCAASGRIFGYYVMGWSRQAPGKESELVAAINYDGGSTYYADSVKGRFTISRDNAKNTVYLQMISLKPVDTAVYYWAAAIGNSEYGWRYDYWGQGTQVTVSS", "polyreactivity (PSR sort gate)": "low polyreactivity"},
      {"sequence": "QVQLVESGGGLVQAGGSLRLSCAASGRIFCGYMGWYRQAPGKEREFVAAISVRGGGTYYADSVKGRFTISRDNAKNTVYLQMNSLKPEDTAVDYCNTRGGWPYDYWGQGTQVTVSS", "polyreactivity (PSR sort gate)": "low polyreactivity"},
      {"sequence": "QDQHVESGGGLVQAGGSLRLSCAASGSIFGYYARGWYRQAPGTETELVAAISKSGTRTYYADSVKGRFTISRDNAKNTVYVQMNSLKPEETAVYYCAARYYSRTTAMDYWGQGTQVTVSS", "polyreactivity (PSR sort gate)": "high polyreactivity"},
      {"sequence": "QVQLVESGGGLVQAGGSLRLSCAASGIIFSLYAMGWYRQAPGKERELVAAISASDGSTYYAVSVKGRFTISRDNAKNTVYLQMNSLKPEDTAVYYCAADSRPTQEYDYWGQGTQVTVSS", "polyreactivity (PSR sort gate)": "low polyreactivity"},
      {"sequence": "QVQLVESGGGLVQAGGSLRLSCAASASTFVYYAMGWYRQAPGKERELVAAISRSGTSTYYADSVKGRFTISRDNAKNTVYLQMNSLKPEDTAVFYCNARKKQGFDYWGQGTQVTVSS", "polyreactivity (PSR sort gate)": "high polyreactivity"},
      {"sequence": "QGQLVESGGGLVQAGGCLRLSCAASGAIFCYAMGWYRQAPGKERDLVAAISFSGVSTYYADSVKGRFTISRENAKNSVYLQMISLIPEDTAVYYCNAYSDGDEDYWGQGTKVTVSS", "polyreactivity (PSR sort gate)": "low polyreactivity"},
      {"sequence": "QDQLVESGGGLVQAGGSLRLSCAASGRTFNYNTMGWYIQAPGKERELVAAINKGGTRTYYADSVKGRFTISRDNAKNTVYLEMNSLKPEDTAVYYCAARLYSYDYWGQGTQVTVSS", "polyreactivity (PSR sort gate)": "high polyreactivity"},
      {"sequence": "QVQVVESGGGLVQAGGSLRLSSAASGSTFNYNAMGWYRQAPGKERELVAAITNGGSTSYADSVKGRFTISRDNAKNTVYLQMNSLKPEDTAVYYCNADEDLRGYDYWGQGTQVTVSS", "polyreactivity (PSR sort gate)": "low polyreactivity"},
      {"sequence": "QVQLVESGGGLVQAGGILRLSCAASGRIFGGNAMGWYRQSPGKEREFVAAITWRGGTTYYADSVKGRFTISRDNAKNTVYLQMNSLKPEDTAVYYCNAMPYTRNTGYDYWGQGTQVTVSS", "polyreactivity (PSR sort gate)": "high polyreactivity"},
      {"sequence": "QVQLVESGGGLVQAGGSLRLSCAASGRTFRYNTMGCYRQAPGKERELVAAITKGAASTYYADSVKGRFTISRDNAKNTVYLQMNSLKPEDTAVYYCNAVYSRIVTQKYWGQGTQVTVSS", "polyreactivity (PSR sort gate)": "high polyreactivity"}
    ]}
  ]
}
